Experiments:
[1] = NO synthesis from NOHA (initial rate); assay type: biochemical; settings: 25° C.
Description: (§1) The initial rate of NO synthesis, NADPH oxidation, or cytochrome c reduction by wild type and mutants was quantitated at 25° C. as described in Abu-Soud et al. (1997) J. Biol. Chem 272: 10769-10772. H2O2-dependent nNOS oxidation of NOHA to nitrite was assayed in 96-well microplates at 30° C. The assay volume was 100 μl and contained 40 mM EPPS, pH 7.6, 250 nM nNOS or mutants, 1 mM NOHA, 1 mM DTT, 25 units/ml superoxide dismutase 0.5 mM EDTA, and 4 μM H4B. Reactions were initiated by adding 30 mM H2O2 and stopped after 10 min by adding 1300 units of catalase. Nitrite was detected at 550 nm using the Griess reagent (100 μL) and quantitated based on nitrite standards.

[2] = NO synthesis versus O2 concentration (oxyhemoglobin assay); assay type: biochemical; settings: O2 levels ranging from 0 to 230 mm O2, 25° C., FIG. 3
Description: The reaction was started by adding 0.2 mM NADPH. Rates of synthesis were quantified as follows: the initial rate of NO synthesis by nNOS was quantitated at 25° C. using oxyhemoglobin assay for NO, according to the method found in Abu-Soud and Stuehr (1993) Proc. Natl. Acad. Sci. U.S.A. 90:10769-10772. The NO mediated conversion of oxyhemoglobin to met-hemoglobin was monitored over time as an absorbence increase at 401 nm, and quantitated using the extinction coefficient of 38 mM^−1 cm^−1. Quantitation was done with a Hitachi U2000 spectrophotometer. O2 concentration measurement in each reaction was calculated based on the O2 concentration of a saturated buffer at 25° C. (approximately 0.26 mM) and the mixing ratios of this solution with an anaerobic buffer that contained no oxygen. […] The difference in the enzymatic activity of the NOS variant and wild-type NOS is most pronounced at low concentrations of O2, i.e., concentrations ranging from 0 to 50 μM.

NADPH oxidation = assay type: biochemical; settings: 25° C.
Description: as §1

cytochrome c = experiment: Cytochrome c reduction; assay type: biochemical; settings: 25° C.
Description: as §1

[3] = NO synthesis from Arg (initial rate); assay type: biochemical; settings: for NO synthesis from Arg, turn over number (kcat): 25° C.
Description: as §1

[4] = Ferrous-nitrosyl complex formation during aerobic steady state; assay type: biochemical; settings: air-saturated buffer, 15° C., 1 mM Arg, 20 μM H4B
Description: NO down-regulates the rate of NO synthesis and associated electron flux by binding to the nNOS heme. We therefore investigated if NO binding to the heme was altered by the Trp-409 mutations during aerobic steady-state catalysis. In this study, 0.6 μM nNOS was diluted is an air-saturated 40 mM EPPS buffer, pH 7.6, containing 0.9 mM EDTA, 3 μM CaM, 200 μM DTT, 20 μM H4B, 80 μM NADPH, and 1 mM Arg; final volume 1 ml. Reactions were started by adding 1.2 mM Ca^2+ and monitored by wavelength scanning at 15° C.

[5] = Ferric- and ferrous-NO complex formation under anaerobic conditions; assay type: binding; settings: Arg and H4B present
Description: Given the above, we investigated if either mutant could form stable ferric or ferrous NO complexes with authentic NO under an anaerobic atmosphere in the presence of Arg and H4B, as occurs for wild-type nNOS. Concentrated small amounts of nNOS or mutants were placed into an anaerobic cuvette with 4 μM H4B, 1 mM Arg, and 200 μM DTT and made anaerobic by repeated cycles of evacuation and equilibration with deoxygenated argon gas. A 40 mM EPPS buffer containing 4 μM H4B, 1 mM Arg, and 200 μM DTT was separately made anaerobic, and 1 ml of this solution was transferred to the cuvette. NO gas was added to the head space and dissolved by mixing. Dithionite solution was then added in some cases.

[6] = CaM-bound, +H4B, NAME (nitro-L-arginine methyl ester)

Row | Substance | NO synthesis from NOHA, turn over number (kcat) ([1]; +CaM) | NO synthesis from NOHA, turn over number (kcat) ([1]; −CaM) | rate of NO production relative to wild-type nNOS [2] | NADPH oxidation, turn over number (kcat) (NADPH oxidation; +CaM) | NADPH oxidation, turn over number (kcat) (NADPH oxidation; CaM-bound, +H4B, Arg) | NADPH oxidation, turn over number (kcat) (NADPH oxidation; [6]) | NADPH oxidation, turn over number (kcat) (NADPH oxidation; CaM-bound, +H4B, agmatine) | NADPH oxidation, turn over number (kcat) (NADPH oxidation; CaM-bound, +H4B, −Arg) | NADPH oxidation, turn over number (kcat) (NADPH oxidation; CaM-bound, −H4B, −Arg) | NADPH oxidation, turn over number (kcat) (NADPH oxidation; −CaM) | Cytochrome c reduction, turn over number (kcat) (cytochrome c; +CaM) | Cytochrome c reduction, turn over number (kcat) (cytochrome c; −CaM) | faster rate of NO synthesis from Arg compared with the wild type ([3]; +CaM) [fold] | NO synthesis from Arg, turn over number (kcat) ([3]; +CaM) | NO synthesis from Arg, turn over number (kcat) ([3]; −CaM) | 6-coordinate ferrous-NO complex accumulation (absorbance buildup at 436 nm) during steady-state NO synthesis [4] | ferric NO complex formation with authentic NO [5] | ferrous-NO complex after dithionite reduction ([5]; dithionite added)
1 | W409F: rat nNOS variant with phenylalanine (F) at position 409 in place of tryptophan, His6-tagged, expressed in E. coli | 453 mol of product formed/mol of protein/min | 0 mol of product formed/mol of protein/min | faster than the wild-type nNOS protein | 445 mol of product formed/mol of protein/min | 480 + 20 min^−1 | 16 + 3 min^−1 | 180 + 10 min^−1 | 189 + 15 min^−1 | 105 + 10 min^−1 | 5.6 mol of product formed/mol of protein/min | 5000 mol of product formed/mol of protein/min | 230 mol of product formed/mol of protein/min | 3 | 286 mol of product formed/mol of protein/min | 0 mol of product formed/mol of protein/min | small |  | 
2 | W409Y: rat nNOS variant with tyrosine (Y) at position 409 in place of tryptophan, His6-tagged, expressed in E. coli | 180 mol of product formed/mol of protein/min | 0 mol of product formed/mol of protein/min | faster than the wild-type nNOS protein | 237 mol of product formed/mol of protein/min | 250 + 20 min^−1 | 25 + 4 min^−1 | 170 + 10 min^−1 | 124 + 4 min^−1 | 74 + 8 min^−1 | 11.2 mol of product formed/mol of protein/min | 5546 mol of product formed/mol of protein/min | 280 mol of product formed/mol of protein/min | 1.8 | 155 mol of product formed/mol of protein/min | 0 mol of product formed/mol of protein/min | no |  | 
3 | nNOS: wild-type rat neuronal nitric oxide synthase, His6-tagged, expressed in E. coli; non-variant comparator [reference compound] | 115 mol of product formed/mol of protein/min | 0 mol of product formed/mol of protein/min |  | 170 mol of product formed/mol of protein/min | 160 + 12 min^−1 | 22 + 4 min^−1 | 250 + 20 min^−1 | 500 + 25 min^−1 | 290 + 25 min^−1 | 11.2 mol of product formed/mol of protein/min | 7000 mol of product formed/mol of protein/min | 500 mol of product formed/mol of protein/min |  | 96 mol of product formed/mol of protein/min | 0 mol of product formed/mol of protein/min | a significant percentage accumulated as the 6-coordinate ferrous-NO complex | formed stable 6-coordinate ferric NO complexes | stable 6-coordinate ferrous-NO complex
